Legend:
[1] = molecular target: CD27 (human (endogenous in CD4+ T cells of blood donors)) (UniProt P26842)
[2] = molecular target: CD27 (human (endogenous in CD4+ T cells of blood donors)) (UniProt P26842); remark: listed apart in the source

Chain of UniProt P26842 (P26842 20-260): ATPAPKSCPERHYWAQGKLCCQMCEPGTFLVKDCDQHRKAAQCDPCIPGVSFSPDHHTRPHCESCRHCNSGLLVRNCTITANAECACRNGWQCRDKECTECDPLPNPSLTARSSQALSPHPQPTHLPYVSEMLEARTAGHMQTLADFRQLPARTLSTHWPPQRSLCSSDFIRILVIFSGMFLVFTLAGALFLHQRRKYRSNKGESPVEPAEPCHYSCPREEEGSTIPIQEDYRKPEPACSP

B1: CD70 (ligand)
chain: MPEEGSGCSVRRRPYGCVLRAALVPLVAGLVICLVVCIQRFAQAQQQLPLESLGWDVAELQLNHTGPQQDPRLYWQGGPALGRSFLHGPELDKGQLRIHRDGIYMVHIQVTLAICSSTTASRHHPTTLAVGICSPASRSISLLRLSFHQGCTIASQRLTPLARGDTLCTNLTGTLLPSRNTDETFFGVQWVRP
50%: HB1.F3 (NSC)-mediated apoptosis of CD4+ T cells (Annexin V/PI, FACS) in co-culture with anti-CD27 blocking mAb (LG.7F9), 0-1 ug/ml [1] | HB1.F3 (NSC)-mediated apoptosis of CD4+ T cells (Annexin V/PI, FACS) in co-culture with anti-CD70 blocking mAb (BU69), 0-1 ug/ml [1] | decrease in FasL expression level on CD4+ T cells (FACS) in co-culture with HB1.F3 after addition of anti-CD27 mAb [2]

Reference: paper PMC3706991
